From publication doi:10.1101/2020.04.03.022855 (bioRxiv, 2020) come the findings set out here.

By stoichiometry N is commonly meant the number of molecules, sites or subunits per partner or assembly.

The data set concerns the molecule itself. Put plainly: cross-linking.

B1: Seventeen kilodalton protein (Skp), unlabelled (natural protein, Escherichia coli, UniProt P0AEU7 21-161, looked up)
chain: ADKIAIVNMGSLFQQVAQKTGVSNTLENEFKGRASELQRMETDLQAKMKKLQSMKAGSDRTKLEKDVMAQRQTFAQKAQAFEQDRARRSNEERGKLVTRIQTAVKSVANSQDIDLVVDANAVAYNSSDVKDITADVLKQVK
With B1, the “stoichiometry N” value amounted to 3.
